Assay results taken from patent US5700659.
One block for each binder: values may come before it.

How the values were obtained:
[1] = target: scrambled ribonuclease A from bovine pancreas (bovine) (UniProt P61823)
[2] = target: scrambled egg lysozyme (Gallus gallus (Chicken)) (UniProt P00698)

Chain of UniProt P61823 (P61823 27-150 limits assumed): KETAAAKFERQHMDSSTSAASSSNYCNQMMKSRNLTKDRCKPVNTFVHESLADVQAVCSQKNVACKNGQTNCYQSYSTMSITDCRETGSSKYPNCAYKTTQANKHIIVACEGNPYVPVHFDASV

- Refolding Ratio of Sc-RNase (%) [1]: 80%
- reactivation of Sc-lysozyme (lysozyme activity on ethylene glycol chitin, absorbance at 420 nm) [2]: 12%
B1: polypeptide possessing protein disulfide isomerase (PDI) activity from Humicola insolens KASI (FERM BP-4239), purified from fungal cells (Example 2) (enzyme)
chain: SDVVQLKKDTFDDFIKTNDLVLAEFFAPWCGHCKALAPEYEEAATTLKEKNIKLAKVDCTEETDLCQQHGVEGYPTLKVFRGLDNVSPYKGQRKAAAITSYMIKQSLPAVSEVTKDNLEEFKKADKAVLVAYVDASDKASSEVFTQVAEKLRDNYPFGSSSDAALAEAEGVKAPAIVLYKDFDEGKAVFSEKFEVEAIEKFAKTGATPLIGEIGPETYSDYMSAGIPLAYIFAETAEERKELSDKLKPIAEAQRGVINFGTIDAKAFGAHAGNLNLKTDKFPAFAIQEVAKNQKFPFDQEKEITFEAIKAFVDDFVAGKIEPSIKSEPIPEKQEGPVTVVVAKNYNEIVLDDTKDVLIEFYAPWCGHCKALAPKYEELGALYAKSEFKDRVVIAKVDATANDVPDEIQGFPTIKLYPAGAKGQPVTYSGSRTVEDLIKFIAENGKYKAAISEDAEETSSATETTTETATKSEEAAKETATEHDEL

- Refolding Ratio of Sc-RNase (%) [1]: 82%
B2: recombinant polypeptide possessing PDI activity from E. coli JM105/pTrc99APDI (Example 8) (enzyme)
chain: B1 chain
